Measured values as given in article doi:10.1101/2025.01.28.635353 (2025).

Molecular target: EGFR (UniProt P00533 25-1210)
Assay: SPR; printed as pKD […]

Kd: 0.126 nM
B1: aEGFR-R1-1 (antibody, V domains shown)
VH: EVKLQQSGDETMRPGASVRMSCKAYGYTFTDYSMHWIRQRPGQGLEWIGIIIPLIDTTRYNQKFKGKATLTADTSSDTAYMELSRLTFEDSAVYYCARSYDPSGDDWFAYWGQGTLVTVSS
VL: DTVLTQSPALSVSPGERVDISCRASESVSTLLHWYQQKPGQQPTLLISLASSLESGVPARFSGSGSGTDFTLTIDPVEADDTAIYYCQESWNEPYAFGAGTKLELK
